One data set deals with CC(=O)C(=O)O. As to the kind of experiment: purified protein. The class given is biochemical, Aspergillus terreus. The following applies: 2.5 mM (R)-α-MBA, 0.1 mM PLP, 0.25% DMSO, 50 mM sodium phosphate pH 8.0.
The subject of a further data set is C[C@@H](N)c1ccccc1. In words: purified protein. The class given is biochemical, Aspergillus terreus. The following applies: 2.5 mM pyruvate, 0.1 mM PLP, 0.25% DMSO, 50 mM sodium phosphate pH 8.0.
Data set [1] deals with T1, AT-ATA (WT-AT), (R)-selective amine transaminase (Aspergillus terreus, UniProt Q0C8G1).
T1 construct: gene ATEG_10023
T1 sequence (Q0C8G1 1-325): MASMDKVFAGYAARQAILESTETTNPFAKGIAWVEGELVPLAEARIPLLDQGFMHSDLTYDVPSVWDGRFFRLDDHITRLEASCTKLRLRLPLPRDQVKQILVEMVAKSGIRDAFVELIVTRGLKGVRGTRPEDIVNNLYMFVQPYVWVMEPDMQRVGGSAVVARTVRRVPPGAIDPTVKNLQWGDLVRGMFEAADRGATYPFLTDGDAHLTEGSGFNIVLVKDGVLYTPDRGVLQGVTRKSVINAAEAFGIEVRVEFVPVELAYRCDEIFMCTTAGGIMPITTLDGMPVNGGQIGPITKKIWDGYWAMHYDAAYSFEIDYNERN
As to the kind of experiment: acetophenone formation at […] nm. The class given is biochemical. The following applies: 2.5 mM (R)-α-MBA, 0.1 mM PLP, 0.25% DMSO, 50 mM sodium phosphate pH 8.0; read-out: Km^pyruvate.

In the case of “AT-ATA (WT-AT), (R)-selective amine transaminase (Aspergillus terreus NIH2624; L118A)”, in the data set on CC(=O)C(=O)O, the Km was found to be 360 ± 50 µM, the kcat amounted to 1.48 ± 0.05 s⁻¹ and the kcat/Km came to 4150 M⁻¹ s⁻¹. In the data set with C[C@@H](N)c1ccccc1, the Km is 180 ± 10 µM, the kcat is 1.46 ± 0.01 s⁻¹ and the kcat/Km was 7930 M⁻¹ s⁻¹.
Take `CC(=O)C(=O)O` [pyruvate]: the Km in data set [1] came to 230 ± 20 µM.
With “AT-ATA (WT-AT), (R)-selective amine transaminase (Aspergillus terreus NIH2624; L118I)”, in the data set with CC(=O)C(=O)O, the Km amounted to 280 ± 20 µM, the kcat was 0.82 ± 0.01 s⁻¹ and the kcat/Km came out at 2950 M⁻¹ s⁻¹. For the same compound, in the data set with C[C@@H](N)c1ccccc1, the Km was 130 ± 10 µM, the kcat came out at 0.82 ± 0.01 s⁻¹ and the kcat/Km stood at 6400 M⁻¹ s⁻¹.
Turning to “AT-ATA (WT-AT), (R)-selective amine transaminase (Aspergillus terreus NIH2624; L118V)”, in the data set with CC(=O)C(=O)O, the Km came out at 290 ± 20 µM, the kcat is 0.51 ± 0.01 s⁻¹ and the kcat/Km was 1760 M⁻¹ s⁻¹. In the data set on C[C@@H](N)c1ccccc1, the Km turned out to be 160 ± 10 µM, the kcat was 0.57 ± 0.01 s⁻¹ and the kcat/Km was determined as 3570 M⁻¹ s⁻¹.
With “AT-ATA (WT-AT), (R)-selective amine transaminase (Aspergillus terreus NIH2624; L118T)”, the Km in the data set on CC(=O)C(=O)O was 400 ± 20 µM. In addition, in the data set on C[C@@H](N)c1ccccc1, the Km was 180 ± 10 µM, the kcat was 1.79 ± 0.02 s⁻¹ and the kcat/Km was determined as 9980 M⁻¹ s⁻¹.

The term Km denotes the concentration of substrate that gives half-maximal velocity. A word on the kcat: it is the maximal rate divided by the concentration of active sites. One may read the kcat/Km as the turnover number divided by the Michaelis constant.

These data come from publication PMC6479498 (Molecules, 2019).
